Biological target: T1, CasEnd-28 (synthetic construct)
T1 chain: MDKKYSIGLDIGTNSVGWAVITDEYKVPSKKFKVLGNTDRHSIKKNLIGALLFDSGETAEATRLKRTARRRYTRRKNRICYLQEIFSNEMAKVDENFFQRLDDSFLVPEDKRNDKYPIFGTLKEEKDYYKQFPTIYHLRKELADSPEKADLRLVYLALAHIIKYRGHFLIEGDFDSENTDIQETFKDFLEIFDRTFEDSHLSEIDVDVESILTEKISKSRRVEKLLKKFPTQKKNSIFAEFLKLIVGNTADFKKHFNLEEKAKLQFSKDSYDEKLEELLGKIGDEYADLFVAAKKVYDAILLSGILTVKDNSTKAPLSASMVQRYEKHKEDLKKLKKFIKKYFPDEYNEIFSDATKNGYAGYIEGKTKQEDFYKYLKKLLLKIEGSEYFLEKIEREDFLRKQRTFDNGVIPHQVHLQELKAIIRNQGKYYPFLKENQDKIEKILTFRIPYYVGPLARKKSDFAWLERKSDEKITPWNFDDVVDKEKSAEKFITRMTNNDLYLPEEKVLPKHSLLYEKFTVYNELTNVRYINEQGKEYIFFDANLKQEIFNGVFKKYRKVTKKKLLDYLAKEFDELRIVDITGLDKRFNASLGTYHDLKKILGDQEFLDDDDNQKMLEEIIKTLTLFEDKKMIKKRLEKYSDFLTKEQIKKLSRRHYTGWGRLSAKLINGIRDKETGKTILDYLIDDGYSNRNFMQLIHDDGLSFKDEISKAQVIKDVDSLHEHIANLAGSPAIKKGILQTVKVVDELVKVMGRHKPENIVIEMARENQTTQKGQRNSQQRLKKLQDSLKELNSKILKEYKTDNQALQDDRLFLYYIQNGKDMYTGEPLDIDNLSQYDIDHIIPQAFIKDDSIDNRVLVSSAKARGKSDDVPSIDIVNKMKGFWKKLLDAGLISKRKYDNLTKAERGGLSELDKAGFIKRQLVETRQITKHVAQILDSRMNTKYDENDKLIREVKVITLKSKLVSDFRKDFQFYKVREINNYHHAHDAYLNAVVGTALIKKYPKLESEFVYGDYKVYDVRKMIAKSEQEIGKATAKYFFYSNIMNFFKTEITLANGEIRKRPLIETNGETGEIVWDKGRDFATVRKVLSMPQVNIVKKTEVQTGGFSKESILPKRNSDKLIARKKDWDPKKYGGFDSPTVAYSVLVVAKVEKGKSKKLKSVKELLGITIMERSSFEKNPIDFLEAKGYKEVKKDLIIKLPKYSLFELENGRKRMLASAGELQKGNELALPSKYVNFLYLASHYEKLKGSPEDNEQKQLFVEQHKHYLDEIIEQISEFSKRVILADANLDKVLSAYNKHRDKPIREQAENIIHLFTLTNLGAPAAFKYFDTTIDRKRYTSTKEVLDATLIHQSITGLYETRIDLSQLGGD
Assay: cell_activity; +++; K562, second nick guide SEQ 380; PAM not stated
Experimental: The ability of the candidate endonucleases, including endonucleases 1-38 (CasEnds 1-38) (set forth in Table 1 and SEQ ID NOS: 1-38, respectively), to mediate target nucleic acid editing in cells was assessed by amplicon sequencing of the endogenous hemoglobin subunit beta (eHBB) gene, wherein the percent of amplicons displaying the intended edit is measured. The editing system is comprised of a template RNA (designed to introduce the Single Nucleotide Polymorphism), a second nick guide RNA, and a fusion protein consisting of retroviral reverse transcriptase and the individual subject Cas endonuclease.
Briefly, 250 ng of plasmid DNA encoding the subject fusion protein (containing one of the subject CasEnds), 250 ng each of plasmid DNA encoding the template RNA and the second nick guide RNA were added to 15 μL Lonza SF buffer containing 250,000 K562 cells. Nucleofection was mediated utilizing program FF-120-DA on a Lonza nucleofector. The day of nucleofection was marked as day 0. At day 3, the cells were harvested and subjected to lysis buffer treatment overnight. Genomic DNA was extracted and used for targeted amplicon sequencing to evaluate the performance of each Cas endonucleases based on their percent edit efficiencies.

B1: HBB template RNA ; HBB protospacer (ssRNA ; dsDNA)
RNA: CAUGGUGCACCUGACUCCUGGUUUUAGAGCUAGAAAUAGCAAGUUAAAAUAAGGCUAGUCCGUUAUCAACUUGAAAAAGUGGCACCGAGUCGGUGCACGGCAGACUUCUCUGCCGGAGUCAGGUGC
DNA 1: CATGGTGCACCTGACTCCTG
DNA 2: CAGGAGTCAGGTGCACCATG
For B1, the activity was ≥ 100 % of reference.
